# The DeepSol protein solubility set
# Assay: soluble on expression in E. coli; label from the status in PepcDB or PDB records
row,Sequence,soluble on expression in E. coli
1,AMRQCAIYGKGGIGKSTTTQNLVAALAEMGKKVMIVGCDPKADSTRLILHSKAQNTIMEMAAEAGTVEDLELEDVLKAGYGGVKCVESGGPEPGVGCAGRGVITAINFLEEEGAYEDDLDFVFYDVLGDVVCGGFAMPIRENKAQEIYIVCSGEMMAMYAANNISKGIVKYANSGSVRLGGLICNSRNTDREDELIIALANKLGTQMIHFVPRDNVVQRAEIRRMTVIEYDPKAKQADEYRALARKVVDNKLLVIPNPITMDELEELLMEFGIMEVEDESIVGKTAEEV,soluble
2,AMSTQGLVQLLANAQCHLRTSTNYNGVHTQFNSALNYKNNGTNTIDGSEAWCSSIVDTNQYIVAGCEVPRTFMCVALQGRGDADQWVTSYKIRYSLDNVSWFEYRNGAAVTGVTDRNTVVNHFFDTPIRARSIAIHPLTWNGHISLRCEFYTQPVQSSVTQVGADIYTGDNCALNTGSGKREVVVPVKFQFEFATLPKVALNFDQIDCTDATNQTRIGVQPRNITTKGFDCVFYTWNENKVYSLRADYIATALE,soluble
3,ANEVNVYSYRQPYLIEPMLKNFEKDTGIKVNIIFADKGLVDRVKQEGELSPADVLLTVDISRVMEIVNADLAQKIDSKVLEKNIPAQFRDSNDQWFGLTTRARVIYTSKDRVGKLPAGFDYLDLAKPEYKGKVCVRSGKNSYNVSLFAAMIEHYGIEKTKAFLEGLKANLARKPQGGDRDQVKAIKEGICDYSIGNSYYYGKMLDDEKQKSWAEAAIINFPSGEHGTHKNISGVVIAKHSPNKANAVKLIEYLSGEKAQGLYAELNHEYPVKEGIEPSAIVKGWGTFKSDTIKLEDIAKNYEAALKLVDEVKFDDFSEKK,soluble
4,APAADAAQAHDPLSVQTGSDIPASVHMPTDQQRDYIKREVMVPMRDGVKLYTVIVIPKNARNAPILLTRTPYNAKGRANRVPNALTMREVLPQGDDVFVEGGYIRVFQDIRGKYGSQGDYVMTRPPHGPLNPTKTDETTDAWDTVDWLVHNVPESNGRVGMTGSAYEGFTVVMALLDPHPALKVAAPESPMVDGWMGDDWFHYGAFRQGAFDYFVSQMTARGGGNDIPRRDADDYTNFLKAGSAGSFATQAGLDQYPFWQRMHAHPAYDAFWQGQALDKILAQRKPTVPMLWEQGLWDQEDMWGAIHAWQALKDADVKAPNTLVMGPWRHSGVNYNGSTLGPLEFEGDTAHQYRRDVFRPFFDEYLKPGSASVHLPDAIIYNTGDQKWDYYRSWPSVCESNCTGGLTPLYLADGHGLSFTHPAADGADSYVSDPAHPVPFISRPFAFAQSSRWKPWLVQDQREAESRPDVVTYETEVLDEPVRVSGVPVADLFAATSGTDSDWVVKLIDVQPAMTPDDPKMGGYELPVSMDIFRGRYRKDFAKPEALQPDATLHYHFTLPAVNHVFAKGHRIMVQIQSSWFPLYDRNPQKFVPNIFDAKPADYTVATQSIHHGGKEATSILLPVVKQKLGPEQKLISEEDLNSAVDHHHHHH,soluble
5,AQAEASSAQAAQQKNFNIAAQPLQSAMLRFAEQAGMQVFFDEVKLDGMQAAALNGSMSVEQGLRRLIGGNPVAFRLQPQGQIVLSRLPTANGDGGALALDSLTVLGAGGNNANDWVYDEPRSVSVISREQMDNRPARHAADILEQTTGAYSSVSQQDPALSVNIRGIQDYGRVNMNIDGMRQNFQKSGHGQRNGTMYIDSELLSGVTIDKGTTGGMGSAGTLGGIATFNTVSASDFLAPGKELGGKLHASTGDNGTHFIGSGILALGNETGDILLAASERHLGDYWPGNKGDIGNIRINNDTGNYDRYAESIKNNKIPDTHYRMHSRLAKVGWNLPANQRLQLSYLQTQTASPIAGTLTNLGTRPPYELGWKRTGYTDVMARNAAFDYSLAPEDVDWLDFQAKLYYVDTQDDSDTYSTSSLLDNGYATRTRLRTYGAQAQNTSRFSLAPGHDFRANYGLEFYYDKATSDSSRQGMEGVTPAGNRSVASLFANLTYDYDGWLTLEGGLRYDRYRLRGQTGLSYPDLAKDGQRYTIDNPCKALRLTGCSTTTREDWDVDRDQGKLSPTLAVAVRPGVEWLELYTTYGKSWRPPAITETLTNGSAHSSSTQYPNPFLQPERSRAWEVGFNVQQPDLWFEGDRLVAKVAYFDTKVDNYINLAIDRNKPGLVQPSIGNAAYVNNLSKTRFRGLEYQLNYDAGVFYADLTYTHMIGKNEFCSNKAWLGGRLRYGDGSRRGNFYVEPDAASNDFVTCDGGTQFGSAAYLPGDRGSVTLGGRAFDRKLDAGVTVRFAPGYQDSSVPSNYPYLADWPKYTLFDLYASYKLTDSLTLRGSVENLTNRAYVVSYGETLANTLGRGRTVQGGVEYRF,soluble
6,AQCEATIESNDAMQYDLKEMVVDKSCKQFTVHLKHVGKMAKSAMGHNWVLTKEADKEGVATDGMNAGLAQDYVKAGDTRVIAHTKVIGGGESDSVTFDVSKLTPGEAYAYFCSFPGHWAMHKGTLKLSN,soluble
7,AQIDLNITCRFAGVFHVEKNGRYSISRTEAADLCKAFNSTLPTMAQMEKALSIGFETCRYGFIEGHVVIPRIHPNSICAANNTGVYILTSNTSQYDTYCFNASAPPEEDCTSVTDLPNAFDGPITITIVNRDGTRYVQKGEYRTNPEDIYPSNPTDDDV,soluble
8,AQVEPTVAYPHIPSNGRVAGSDRIRVTHAYVGSCTNGRITDLRDVARILKGRKVAQDVQMIVVPATQAIWKQAAQEGLLEIFVDAGASVSYPSCGACLGMHSGVLGPDDICISSSNRNFVGRMGDPSAQIYLASPATVAASAVEGFIADPRRYDAEGND,not soluble
9,ARLRAGFEAAGAQGVETPILQPAETLLDLYGEDIRARAYVTSDALRGEQMLRPDFTVPVVQKHMEHGAEPARYTYAGEVFRRQEHDPDRANEYIQVGYEVFDRTNPAAADAEVFALIAQALDGLALRAATGDIGILMAAVEGLKTTEPRKAALMRHIWRPRRFRALLDRYAGRTTVPPARAALLAESEPLADGAPEIGKRSRAEVEARIEVLRADAAAAPISDNEMAGLDALLSVRETMPYALEHLRDIAVDLPQITPALDRLEARIAALRARGINVDRLDFEASYGRTSMEYYDGFVFGFYAERRPDLPPIATGGRYDALTRRLGNGAEIPAVGGVLRPGLMLLLAEAE,not soluble
10,ASGSMQGDPDVLRLLNEQLTSELTAINQYFLHSKMQDNWGFTELAAHTRAESFDEMRHAEEITDRILLLDGLPNYQRIGSLRIGQTLREQFEADLAIEYDVLNRLKPGIVMCREKQDTTSAVLLEKIVADEEEHIDYLETQLELMDKLGEELYSAQCVSRPPTSAWSHPQFEK,soluble
11,ASLLARYPPEKLFQAERNFNAAQDLDVSLLEGDLVGVIKKKDPMGSQNRWLIDNGVTKGFVYSSFLKPYNPRRSHSDAS,soluble
12,ASMTGGQQMGRGSDSKPPYSYAQLIVQAITMAPDKQLTLNGIYTHITKNYPYYRTADKGWQNSIRHNLSLNRYFIKVPRSQEEPGKGSFWRIDPASESKLIEQAFRKRRPR,soluble
13,ASMTGNECPELQPPVHGKIEPSQAKYFFKDQVLVSCDTGYKVLKDNVEMDTFQIECLKDGTWSNKIPTCKIVDCRAPGELEHGLITFSTRNNLTTYKSEIKYSCQEPYYKMLNNNTGIYTCSAQGVWMNKVLGRSLPTCLPVCGLPKFSRKLMAR,soluble
14,ASMTTPCITILSGHFPKETIYARKTKELVEEYCSIHGYNFYYEESEPLETEEHALHFRRSWIIQQAAEKFPSTEWFLWLDSDVYVNPKNKNKPITSFIDLSDPNILYHTFHEAPWGSYPINTGVKFVHKDALEIEKIVWSLRNEAPWNTFPYEQKTVYEYVFPRIPGRYIVHDPYTLNCIVKAYPEHVKDALFVHMCGTSRAERDEHMEMVAT,soluble
15,ASNITRINEIIEIAVNNKRKVCLLGKSMDVNVNISRKIGLMDIDSNDIVEVRDIKNYPDRSILILCTGSQGEDSAALNTMARGKHNWVSLKSTDTIIMSSNPIPGNYAAVENLLNELSKYGVTIFENSPNMKLHASGHATQQELQLMLNLVFPRYLIPIHGEYKMMRTIKNIAQECGINGDDVGLLANGQVMYLIDGKLYYSGEVINADPIYIESRNSSPDLARVIKQRQILSREGMFAVIVVFDKNNNILGMPTLITRGCFFALDSSPLMTKITHSIKRGLENVIQNKRFNTREQMIKELKRVCKETVSYFIWKNKSRNPLISTVLSWV,soluble
16,ASVRVVQKNLVFVVGLSQRLADPEVLKRPEYFGKFGKIHKVVINNSTSYAGSQGPSASAYVTYIRSEDALRAIQCVNNVVVDGRTLKASLGTTKYCSY,soluble
17,ASWSHPQFEKGAMALTEAWLIEKANRKLNAGGMYKITSDKTRNVIKKMAKEGIYLCVAQGYRSTAEQNALYAQGRTKPGAIVTNAKGGQSNHNYGVAVDLCLYTNDGKDVIWESTTSRWKKVVAAMKAEGFKWGGDWKSFKDYPHFELCDAVSGEKIPAATQNTNTNSNRYEGKVIDSA,soluble
18,ATDTGGYAATAGGNVTGAVSKTATSMQDIVNIIDAARLDANGKKVKGGAYPLVITYTGNEDSLINAAAANICGQWSKDPRGVEIKEFTKGITIIGANGSSANFGIWIKKSSDVVVQNMRIGYLPGGAKDGDMIRVDDSPNVWVDHNELFAANHECDGTPDNDTTFESAVDIKGASNTVTVSYNYIHGVKKVGLDGSSSSDTGRNITYHHNYYNDVNAKLPLQRGGLVHAYNNLYTNITGSGLNVRQNGQALIENNWFEKAINPVTSRYDGKNFGTWVLKGNNITKPADFSTYSITWTADTKPYVNADSWTSTGTFPTVAYNYSPVSAQCVKDKLPGYAGVGKNLATLTSTACK,soluble
19,ATEEEYQLFLEPYLQETRLGAYDFPLFSTIFKAFSKKGSFKSLIDPYCFGQALSNGRAITFVVTHDIPNNDVFLDLIMDEEDEWIAYAYILGRDGGVPLVYTDLDTSGIKNKNGKPRWKDAWNDPRMAKMIAFHNVTHGESMTVLEGNDDMLVLKRGEKGIVVLNKSTRAQSLSLKTECDWFDLMSDQSVKAGIELKVPAKSFMLLVQK,not soluble
20,AVKRRPRFPVNSNSNGGNELCPKIRIGQDDLPGFDLISQFQVDKAASRRAIQRVVGSATLQVAYKLGNNVDFRIPTRNLYPSGLPEEYSFLTTFRMTGSTLKKNWNIWQIQDSSGKEQVGIKINGQTQSVVFSYKGLDGSLQTAAFSNLSSLFDSQWHKIMIGVERSSATLFVDCNRIESLPIKPRGPIDIDGFAVLGKLADNPQVSVPFELQWMLIHCDPLRPRRETCHELPARITPSQTTDER,soluble
21,AVNEENIMIPKGVEVYEITGPYFFGIATKFEETMAQLGDRPNVRIIRMRKVPFIDSTGIHNLTTLCEMSQKEKITVILSGVNEKVYKVLEKSGFYELLGKENICPNFKIALDRAEEVMK,soluble
22,AVRQLDRQGRDDVEVAVLAPQPELRIRPRFYEPDVQRMAAPLGELFAAVGVRFVQGSAQRIDVAGKRVEYRDAEGTLAQLDYDRLVLAAGSGVWRPASVAGIDAAFDVDQLEDALRLEAHLHALRDLPDSPARNTVVVAGGGFTGIETATEMPARLRAILGEKAALRVIVVDRGAAIGASMGADLSGLIAEASAELGVEWCLGRSVAAVDAEGVTLDDGQRIEAKTVVWTVGVRASTLTGQIPGERDAQGRLHVDRNLKVLGLDDVYATGDVARAATDDLGNHALMTCQHAIALGRSAGNNVAADLLGVEPIPYSQVKYVTCLDLGGWGAVFTEGWDRQVRFVREEGKKIKTEINGVWIYPPAADRAVALAAADPLIPVVA,not soluble
23,AVSFTGVSGVKNIVAVTACPTGVAHTFMSAEAIEAYAKKQGWNVKVETRGQVGAGNEITVEEVAAADLVFVAADIDVPLDKFKGKPMYRTSTGLALKKTEQEFDKAFKEAKIF,not soluble
24,AWVDQTPRTITKETGESLTIKCVLKDHSCGLSSTTWYRTQLGSTNEKTISIGGRYDETVDKGSKSFSLRISDLRVEDSGTYKCQADYSPSCYSYPSLESAVEGAGTVLTVK,soluble
